One assay has as its target T1, αEβ7 integrin (human, UniProt P38570 19-1124; P26010 20-723).
T1 construct: Heterodimer; also called alphaEbeta7; CD103 (αE subunit)
Put plainly: method not stated.

The next assay has as its target T2, α4β7 integrin (human, UniProt P13612 34-970; P26010 20-723).
T2 construct: Heterodimer; also called alpha4beta7
Put plainly: method not stated.

T1 sequence (P38570 19-1124, chain 1 of 2): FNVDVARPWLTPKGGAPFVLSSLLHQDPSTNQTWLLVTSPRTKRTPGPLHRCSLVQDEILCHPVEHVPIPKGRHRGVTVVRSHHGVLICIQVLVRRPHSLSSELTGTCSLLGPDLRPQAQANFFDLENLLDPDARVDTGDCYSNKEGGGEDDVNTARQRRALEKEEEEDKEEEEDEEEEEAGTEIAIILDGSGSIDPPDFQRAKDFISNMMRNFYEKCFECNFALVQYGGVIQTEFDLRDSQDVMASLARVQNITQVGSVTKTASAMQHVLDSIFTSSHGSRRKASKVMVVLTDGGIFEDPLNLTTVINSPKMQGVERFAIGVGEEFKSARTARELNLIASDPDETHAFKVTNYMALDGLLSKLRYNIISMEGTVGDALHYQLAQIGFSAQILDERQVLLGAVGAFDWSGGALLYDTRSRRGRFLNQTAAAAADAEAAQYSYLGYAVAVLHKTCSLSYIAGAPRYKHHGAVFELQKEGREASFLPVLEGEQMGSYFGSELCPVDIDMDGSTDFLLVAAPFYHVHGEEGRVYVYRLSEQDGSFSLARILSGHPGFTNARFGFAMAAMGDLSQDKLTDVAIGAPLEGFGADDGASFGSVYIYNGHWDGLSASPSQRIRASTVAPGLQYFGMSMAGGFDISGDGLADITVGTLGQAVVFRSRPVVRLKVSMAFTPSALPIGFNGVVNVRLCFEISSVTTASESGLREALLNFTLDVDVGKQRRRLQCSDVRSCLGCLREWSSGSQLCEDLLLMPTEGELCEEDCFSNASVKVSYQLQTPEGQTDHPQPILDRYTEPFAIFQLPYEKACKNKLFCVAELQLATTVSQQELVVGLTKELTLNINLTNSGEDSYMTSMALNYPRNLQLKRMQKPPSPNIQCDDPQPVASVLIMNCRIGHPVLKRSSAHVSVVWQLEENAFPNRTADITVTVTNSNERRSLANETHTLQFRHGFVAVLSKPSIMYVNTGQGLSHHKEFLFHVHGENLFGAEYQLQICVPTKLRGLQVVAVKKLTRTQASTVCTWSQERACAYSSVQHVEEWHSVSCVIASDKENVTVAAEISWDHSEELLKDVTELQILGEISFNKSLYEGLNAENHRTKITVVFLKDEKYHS
T1 sequence (P26010 20-723, chain 2 of 2): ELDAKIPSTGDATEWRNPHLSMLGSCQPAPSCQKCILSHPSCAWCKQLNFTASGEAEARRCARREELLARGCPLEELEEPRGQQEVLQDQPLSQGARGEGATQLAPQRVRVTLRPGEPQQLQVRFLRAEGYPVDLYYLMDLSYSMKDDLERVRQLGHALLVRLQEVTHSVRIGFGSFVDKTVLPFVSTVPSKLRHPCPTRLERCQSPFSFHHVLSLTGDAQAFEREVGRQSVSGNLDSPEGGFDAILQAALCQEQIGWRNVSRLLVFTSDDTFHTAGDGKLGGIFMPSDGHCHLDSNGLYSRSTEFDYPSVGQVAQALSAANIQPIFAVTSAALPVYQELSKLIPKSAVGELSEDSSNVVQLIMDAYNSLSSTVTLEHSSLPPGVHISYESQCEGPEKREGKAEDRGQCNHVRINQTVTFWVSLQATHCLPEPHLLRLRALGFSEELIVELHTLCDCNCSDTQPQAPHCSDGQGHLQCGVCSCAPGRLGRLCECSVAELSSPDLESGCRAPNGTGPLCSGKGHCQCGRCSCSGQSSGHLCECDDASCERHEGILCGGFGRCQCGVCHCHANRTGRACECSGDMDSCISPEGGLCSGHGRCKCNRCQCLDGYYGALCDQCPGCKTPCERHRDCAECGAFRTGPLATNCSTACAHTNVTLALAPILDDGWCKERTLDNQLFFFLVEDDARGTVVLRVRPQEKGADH

B1: rhuMAb Beta7 (etrolizumab) (antibody, V domains shown)
VH: EVQLVESGGGLVQPGGSLRLSCAASGFFITNNYWGWVRQAPGKGLEWVGYISYSGSTSYNPSLKSRFTISRDTSKNTFYLQMNSLRAEDTAVYYCARTGSSGYFDFWGQGTLVTVSS
VL: DIQMTQSPSSLSASVGDRVTITCRASESVDDLLHWYQQKPGKAPKLLIKYASQSISGVPSRFSGSGSGTDFTLTISSLQPEDFATYYCQQGNSLPNTFGQGTKVEIKR
The term Kd denotes the equilibrium constant for the complex coming apart. For B1, the results for the equilibrium dissociation constant (Kd) with αEβ7 integrin and with α4β7 integrin were around 1.8 nM and around 0.116 nM, respectively.

These data come from patent US20210238288A1 (Genentech, published 2021).
